According to patent publication US9011842:

Test system: T1, 33-mer peptide fragment of α-gliadin, LQLQPFPQPQLPYPQPQLPYPQPQLPYPQPQPF (SEQ ID NO:1)
T1 sequence: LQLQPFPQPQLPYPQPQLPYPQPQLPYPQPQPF

Aspergillus niger prolyl endopeptidase
hydrolysis of the 33-mer peptide (HPLC-MS and ELISA), pH 5.0: CPY, MX-PEP, and AN-PEP hydrolyze the 33-mer peptide. AN-PEP appears to have the strongest activity against the 33-mer peptide, followed by CPY and then MX-PEP

chymotrypsin
digestion of the 33-mer peptide (HPLC-MS), in vitro gastrointestinal model, digestive enzymes only: The digestive enzymes only (pepsin, trypsin, and chymotrypsin) failed to digest the 33-mer peptide

trypsin
digestion of the 33-mer peptide (HPLC-MS), in vitro gastrointestinal model, digestive enzymes only: The digestive enzymes only (pepsin, trypsin, and chymotrypsin) failed to digest the 33-mer peptide

Neutral protease I
degradation of the 33-mer peptide (ELISA of intact 33-mer), 0.1 mg/ml enzyme, SIF pH 6.8: NP I and NP II each exhibited a limited ability to degrade the 33-mer peptide | percent of the 33-mer peptide degraded (ELISA), 60 min, SIF pH 6.8: NP I alone degraded about 40% of the 33-mer peptide

Myxococcus xanthus prolyl endopeptidase
hydrolysis of the 33-mer peptide (HPLC-MS and ELISA), SIF pH 6.8: CPY, MX-PEP, and AN-PEP hydrolyze the 33-mer peptide. AN-PEP appears to have the strongest activity against the 33-mer peptide, followed by CPY and then MX-PEP | hydrolysis of the 33-mer peptide (HPLC-MS), 4 hours, buffer pH 4.0 to 7.0: MX-PEP did not hydrolyze the 33-mer peptide at an acidic pH

pepsin
digestion of the 33-mer peptide (HPLC-MS), in vitro gastrointestinal model, digestive enzymes only: The digestive enzymes only (pepsin, trypsin, and chymotrypsin) failed to digest the 33-mer peptide | hydrolysis of the 33-mer peptide (HPLC-MS), 15 hours, SGF pH 2.0: At gastric conditions (pH≈2.0), pepsin did not hydrolyze most of the 33-mer peptide

Aorsin B
degradation of the 33-mer peptide (ELISA of intact 33-mer), 240 min, pH 4.0: Incubation with either Aorsin A or B for about 240 minutes resulted in complete degradation of the 33-mer peptide | hydrolysis of the 33-mer peptide (HPLC-MS), citrate buffer pH 4.0: when incubated with the 33-mer peptide in acidic conditions (pH≈4.0), Aorsin B hydrolyzed the 33-mer

Aorsin A
degradation of the 33-mer peptide (ELISA of intact 33-mer), 240 min, pH 4.0: Incubation with either Aorsin A or B for about 240 minutes resulted in complete degradation of the 33-mer peptide | hydrolysis of the 33-mer peptide (HPLC-MS), citrate buffer pH 4.0: When incubated with the 33-mer peptide in acidic conditions (pH≈4.0), Aorsin A hydrolyzed the 33-mer
